In paper PMC12269619 (2025):

B1: m42.127 Fab / Biotinylated junctional peptide Pep21 (PfCSP peptide 21) [modified: biotin (position not stated); biotin (position not stated)] [Plasmodium falciparum (clone 3D7)] (parent complex)
chain 1: QVQLVQSGAEVKKPGASVKVSCKASGYTFTSYAIHWVRQAPGQRLEWMGWIKAGNGNTRYSQKFQDRVTITRDTSASTAYMELSSLRSEDTAVYYCALLTVITPDDTFDIWGQGTMVTVSSASTKGPSVFPLAPSSKSTSGGTAALGCLVKDYFPEPVTVSWNSGALTSGVHTFPAVLQSSGLYSLSSVVTVPSSSLGTQTYICNVNHKPSNTKVDKKVEPKSCDKGLEVLFQ
chain 2: not shown
chain 3: NPDPNANPNVDPNAN

Variants of: B1
Assay: BLI; read off a plot
chain 1 P104M showed a Kd of about 0.022 µM.
For chain 1 P104Q, the Kd was about 0.02 µM.
chain 1 T103K showed a Kd of about 0.015 µM.
Variant chain 1 T103R, chain 1 P104R has a Kd of about 0.015 µM.
With chain 1 T103R, chain 1 P104Q the Kd was about 0.018 µM.
chain 1 T100M was tested, and the Kd was about 0.024 µM.
chain 1 Y32K gave a Kd of about 0.018 µM.
